From patent US9868960B2, “Placental like alkaline phosphatase (PLAP) promoter mediated cell targeting” (priority 2013, dated 2018)
“Also recorded” adds a separate entry of the source.

B1: PLAP promoter: human PLAP promoter region −170 to +24 cloned in promoter less luciferase expression vector pGL3 Basic (nucleic acid, listed as Homo sapiens)
DNA: AAGCTGCCTTTCTCAGGACCCCAGCCCCAGCCCAGCCCAGCCACACCCTGCGACTCTCTTCAGCCAGTGTGGCTTCAGGTCAAGAGGCTGGGCGGGGTCAAGGTGGTAACAAGGGGAGGGGCCAGGACACAGTTTTCCCTGATTTAAACCCAGGCAGCCTGGAGTGCAGCTCATACTCCATACCTGGGATTTCCGC
modifications: in pGL3 Basic luciferase vector; DNASequence (1)..(196) Unique PLAP promoter Sequence
notes: human PLAP promoter region −170 to +24 cloned in promoter less luciferase expression vector pGL3 Basic
B2: NFKB−PLAP enhancer-promoter system: tetramer of NFκB DNA binding sites (GGGAATTTCC) upstream of PLAP promoter −170 to +24 in pGL3 Basic luciferase vector (nucleic acid)
DNA: GGGAATTTCCGGGAATTTCCGGGAATTTCCGGGAATTTCCAAGCTGCCTTTCTCAGGACCCCAGCCCCAGCCCAGCCCAGCCACACCCTGCGACTCTCTTCAGCCAGTGTGGCTTCAGGTCAAGAGGCTGGGCGGGGTCAAGGTGGTAACAAGGGGAGGGGCCAGGACACAGTTTTCCCTGATTTAAACCCAGGCAGCCTGGAGTGCAGCTCATACTCCATACCTGGGATTTCCGC
modifications: in pGL3 Basic luciferase vector; Enhancer (NFKB)-Promoter (PLAP) Sequence.

Columns and labels:
[1] = test system: HPV-16 enhancer in SiHa cells; experiment: Chip assay of H3K9me2 and H3K27me3 at the targeted enhancer; assay type: cell-based; conditions: harvested after 5 days
Description: FIG. 13: Elucidating the mechanism of transcriptional gene silencing: (A) SiHa cells untreated or treated with TSA were transfected with NFκB+PLAP enhancer-promoter chimera expressing test & scrambled shRNA and harvested after 5 days. Chip was performed with antibodies against H3K9me2 and H3K27me3; antibodies against RNA polymerase and mouse IgG were respectively used as positive and negative controls for pull down. Input and immuno-precipitated DNA were measured by PCR with requisite primers and the enrichment at enhancer region was further quantified by qPCR.
Using chip assay, we assessed the level of histone H3K9 dimethylation (H3K9me2) and H3K27 trimethylation (H3K27me3), two repressive epigenetic marks shown to increase as a result of TGS.

[2] = test system: PLAP negative cell lines HepG2 (Hepatoma) & CHO; experiment: Dual luciferase reporter assay of promoter/enhancer-promoter constructs in PLAP negative cell lines; assay type: cell-based; conditions: PLAP negative/control cell lines HepG2 & CHO, 48 hours post transfection
Description: (§1) All transfections were performed using Lipofectamine™ 2000 transfection reagent according to manufacturer's instruction (Invitrogen). Briefly, (1×10^6/well) cells were cultured in 6-well plates overnight. The luciferase reporter vectors (PLAP-luc, NFκB+PLAP−luc & pG13 Basic; 1 μg well^−1) were co-transfected in 20:1 ratio with Renilla luciferase expression vector (pRL-TK), an internal control for normalisation of the transcriptional activity of the reporter vectors. Forty-eight hours post transfection, the cells were lysed and luciferase activities were assayed using Dual Luciferase Assay reagents (Promega) according to manufacturer's protocol. All transfections were performed in triplicate and all experiments were repeated at least twice.
(§2) The region of PLAP promoter spanning from −170 to +24 containing invariant TATA boxes (nucleotides −31 to −25) & Sp1 binding sites (nucleotides −84 to −76) cloned in promoter less luciferase expression vector PGL3 basic was transfected in battery of PLAP positive cell cervical cell lines (HeLa, SiHa and CaSki) and appropriate PLAP negative cell lines HepG2 (Hepatoma) & CHO. Promoter activity was assayed in these in vitro model systems by dual luciferase assay.
(§3) To develop an optimal enhancer-promoter system for improving the transcriptional activity of PLAP promoter a fusion construct comprising of PLAP promoter & tetramer of NFKB binding sites cloned in PGL3 basic was evaluated by dual luciferase assay in the above mentioned cell lines. Furthermore, we compared the transcriptional activity of PLAP promoter/enhancer systems with strong SV40 virus promoter (PGL3 C).

[3] = test system: PLAP positive cell lines (HeLa, SiHa, CaSki, Caco-2); experiment: Dual luciferase reporter assay of promoter/enhancer-promoter constructs in PLAP positive cell lines; assay type: cell-based, human; conditions: for transcriptional activity (relative luciferase activity over pGL3-Basic): PLAP positive cell lines, 48 hours post transfection, normalised by Renilla; for tissue specificity of luciferase expression: PLAP positive versus PLAP negative cell lines; for tissue specificity of luciferase expression / trend of construct activity (strength): FIG. 6; for trend of construct activity (strength): luciferase reporter constructs
Description: as §1, §2, §3

[4] = listed as NFκB+PLAP promoter enhancer systems

Molecule | levels of H3K9me2 and H3K27me3 at the targeted enhancer [1] | transcriptional activity (relative luciferase activity over pGL3-Basic) [2] | transcriptional activity (relative luciferase activity over pGL3-Basic) [3] | tissue specificity of luciferase expression [3] | trend of construct activity (strength) [3] | transcriptional activity (relative luciferase activity over pGL3-Basic) [2, 4] | transcriptional activity (relative luciferase activity over pGL3-Basic) [3, 4]
CC(/C=C/C(=O)NO)=C\[C@@H](C)C(=O)c1ccc(N(C)C)cc1 [trichostatin] | reduced this enrichment |  |  |  |  |  | 
B1 |  | little or no activity in the control cell lines; also recorded: not in PLAP negative cell line | of optimum level only in carcinoma cell lines expressing PLAP; also recorded: selective transcriptional activity in all the PLAP positive cell lines | tissue selective expression | NFκB−PLAP Pr>SV40 Pr>PLAP Pr |  | 
B2 |  | not in PLAP negative cell line | selective transcriptional activity in all the PLAP positive cell lines; also recorded: highly comparable to that of strong SV40 virus promoter | tissue selective expression | NFκB−PLAP Pr>SV40 Pr>PLAP Pr | little or no activity in the control cell lines | of optimum level only in carcinoma cell lines expressing PLAP
